From patent US20110165265A1, “TRAIL VARIANTS FOR TREATING CANCER” (FUNDACIÓ GENÒMICA (CRG), priority 2007, published 2011) come the findings set out here.

Data set [1] deals with Colo205 cells. Briefly: Colo205 apoptosis after neutralizing antibodies to DcR1 and DcR2. It counts as cell-based, human. As to conditions: for dose that induced approximately 50% cell death: Annexin V. How it is done: All graphs are representatives of two independent repeats. […] Induction of apoptosis was measured 3 h post-treatment using Annexin V assay. […] The graphs show the average±SEM of three independent experiments.
Apoptotic cell death was measured 3 h post-treatment using staining Annexin V assay (FIG. 15), as described above. Increase in apoptosis was expressed as fold increase compared to the level of apoptosis caused by the ligands alone, in the absence of the neutralizing antibodies.

Another data set deals with Human dermal fibroblasts. As to the kind of experiment: MTT viability of human dermal fibroblasts. The settings on record: 50-500 ng/ml, 24 h. It counts as cell-based. The procedure:
Human dermal fibroblasts were grown in low glucose DMEM (Sigma) supplemented with 10% fetal calf serum, 50 U/ml penicillin and […] streptomycin; human umbilical vein endothelial cells (HUVEC, PromoCell) were cultured in Endothelial Cell Growth Medium with SupplementMix (PromoCell). Fibroblasts and HUVEC cells were seeded at 1.3×10^5 cells/ml 24 h before treatment with increasing concentrations of TRAIL and DR5-selective variants, D269H and D269HE195R (50-500 ng/ml) for 24 h and cell viability was measured using MTT assay, wherein 200 μg/ml MTT (3-(4,5-dimethylthiazo1-2-yl)-2,5-diphenyl-tetrazolium bromide) was added to control and treated cells and incubated for 3 h at 37° C. The reaction was stopped and the purple formazan precipitate formed was dissolved using dimethyl sulfoxide (DMSO) and the colour intensity was measured at 550 nm on a Wallac multilabel counter. The control value corresponding to untreated cells was taken as 100% and the viability of treated samples was expressed as a percentage of the control. (FIG. 15).

Data set [2] deals with Colo205 cells. As to the kind of experiment: DEVDase (caspase) activity in Colo205. The settings on record: Colo205, 5 mM aspirin 24 h. Format: cell-based, human. The procedure:
(A) Aspirin induces expression of DR5, DcR1 and DcR2 on the cell surface. Colo205 cells were treated with 5 mM aspirin for 24 h and cell surface expression of DR4, DR5, DcR1 and DcR2 was measured by immunostaining and detected with flow cytometry. The histograms shown include isotype control (black, open peak), untreated Colo205 (grey, closed peak) and aspirin-treated Colo205 (grey, open peak) samples. The histograms are representatives of three independent experiments. […] DEVDase activity was expressed as average nmol AMC released per minute by 1 mg total cellular protein±SD of 3 independent experiments.
In order to determine the cell surface expression of each of the TRAIL receptors on A2780 carcinoma cells, cells were washed twice in PBS containing 1% BSA and then incubated with monoclonal antibodies to DR4, DR5, DcR1 or DcR2 (Alexis) for 40 min. After two wash steps with PBS/BSA, anti-mouse IgG-FITC (Sigma) secondary antibody was added for 30 min. All incubations were carried out on ice. Negative controls contained isotype control antibody. Cells were analyzed by a FacsCalibur flow cytometer. […] Substrate cleavage leading to the release of free AMC was monitored at 37° C. at 60 sec intervals for 25 cycles using a Wallac multilabel counter (excitation 355 nm, emission 460 nm). […]

The subject of data set [3] is Colo205 cells. As to the kind of experiment: Annexin V apoptosis in Colo205 after PI3K inhibition. It counts as cell-based, human. The settings on record: 20 μM LY294002 15-18 hours, ligand 0.1 μg/ml 3 h. The procedure:
Modulation of TRAIL and D269H/E195R induced apoptosis by PI3K inhibition in Colo205, as assessed by Annexin V assay. Cells were pre-incubated for 15-18 hours with 20 μM LY294002, then either left untreated or exposed to rhTRAIL (0.1 μg/ml) or D269H/E195R (0.1 μg/ml) for 3 additional hours before harvest.

The next data set concerns SW948 cells. As to the kind of experiment: Cell survival / sensitivity of SW948. Format: cell-based.
A further data set relates to SiHa cells. Briefly: Cell survival / sensitivity of SiHa. It counts as cell-based. The source says: (A) Effect of increasing concentration of Bortezomib on cell survival. […] (C) 10Gy Radiotherapy had no effect in further decreasing cell viability of SIHA cells in both TRAIL and DR5 mutant treated cells.
The next data set has as its system HeLa cells. Briefly: Cell survival / sensitivity of HeLa. Format: cell-based. The procedure:
(B) Effect of increasing of Bortezomib on cell viability. Hela cells appear to tolerate higher concentration of Bortezomib compared to Caski and SIHA cells (C) Combination therapy with 10 nM Bortezomib incubated for 24 h lead to further decreases in cell viability in cells treated with both TRAIL and two of the DR5 mutants (D) Radiation therapy in combination with TRAIL or the DR5 mutants further decrease cell viability in HELA cells. The DR5 mutant show decrease cell viability at lower concentration of ligand compared to TRAIL.

In another data set the test system is ML-1 cells. Briefly: Cytotoxicity in ML-1 cells. Format: cell-based. The procedure:
Colo205 and ML-1 cells were then treated with increasing concentrations of TRAIL or the DR5-specific variants D269H, D269HE195R, and D269H/T214R, and their cytotoxic potential was measured with a 3-(4,5-dimethylthiazol-2-yl)-2,5-diphenyl tetrazolium bromide (MTT) assay.

Data set [4] has as its system Colo205 cells. As to the kind of experiment: Colo205 apoptosis after pre-incubation of ligand with soluble receptor-Ig. The settings on record: 10 ng/ml ligand; for effect of pre-incubation with sDcR1 on pro-apoptotic activity: sDcR1 up to 2 μg/ml. It counts as cell-based, human. How it is done:
(A) Effect of soluble recombinant DcR1-Ig (sDcR1) on apoptosis induction by TRAIL and DR5-selective variants. […] All graphs are representatives of two independent repeats. (D) Neutralizing antibodies against DcR1 and DcR2 can augment wtTRAIL- but not DR5-variant induced cell death. […] Induction of apoptosis was measured 3 h post-treatment using Annexin V assay. […] The graphs show the average±SEM of three independent experiments.
Induction of cell death was assessed by Annexin V assay 3 h after treatment (FIG. 14), as described above. […] (FIG. 14C). This confirms that the observed differences in blocking efficacy are due to reduced ability of the decoy receptors to bind and inhibit D269H and D269HE195R.

Entries after “also recorded” stand apart in the source; their conditions may differ.

B1: D269HE195R: rhTRAIL (114-281) carrying mutations D269H and E195R; DR5-selective TRAIL variant (protein)
chain: MVRERGPQRVAAHITGTRGRSNTLSSPNSKNEKALGRKINSWESSRSGHSFLSNLHLRNGELVIHEKGFYYIYSQTYFRFQERIKENTKNDKQMVQYIYKYTSYPDPILLMKSARNSCWSKDAEYGLYSIYQGGIFELKENDRIFVSVTNEHLIDMHHEASFFGAFLVG
As for B1, in the data set on Colo205 cells [1] (Colo205), the “apoptosis rate enhancement with neutralizing antibodies to both DcR1 and DcR2” value is “not affected”. Further, in the data set on Colo205 cells [1] (Colo205, 3 h), the “fold increase in apoptosis with DcR1 neutralising antibody” value is “no increase in apoptosis”; the “fold increase in apoptosis with DcR2 neutralising antibody” value is on record as “no increase of apoptosis; also recorded: no increase in apoptosis”; the “fold increase in apoptosis with neutralizing antibodies to both DcR1 and DcR2” value is “not and not affected”; the “dose that induced approximately 50% cell death” value is around 4 ng/mL. The cell viability result in the data set on Human dermal fibroblasts is reported as “did not result in a decrease in cell viability”. Further, the sensitisation by aspirin entry with Colo205 cells [2] is reported as “much more pronounced”. Besides, the “change of sensitivity after PI3K inhibition” value in the data set with Colo205 cells [3] is “enhanced”. Further, in the data set on SW948 cells, the “cell viability, single agent” value is reported as “decreased cell viability” and the “effect of Aspirin” value is “enhanced the effect”. Further, in the data set on SiHa cells, the “effect of combination with bortezomib” value is listed as “increased tumor cell death” and the “sensitivity, single agent” value is reported as “resistant”. In addition, in the data set with HeLa cells, the “cell viability, single agent” value is on record as “comparable”; the “effect of radiotherapy and Bortezomib on induced apoptosis” value is reported as “enhanced apoptosis”. For the same molecule, the cell death induction result in the data set on ML-1 cells is given as “only TRAIL was able to induce cell death; also recorded: hardly any apoptosis”. Also, in the data set on Colo205 cells [4], the “effect of pre-incubation with sDcR2 on apoptosis induction” value is given as “no complete protection could be achieved” and the “effect of pre-incubation with sDcR1 on pro-apoptotic activity” value was “failed to reduce”.

B2: wtTRAIL: wild-type soluble recombinant human TRAIL, amino acids 114-281 (SEQ ID NO: 3) (protein, listed as Homo sapiens)
chain: MVRRGRVAAHTGTRGRSNTSSNSKNKAGRKNSWSSRSGHSSNHRNGVHKGYYYSTYRKNTKNDKMVYYKYTSYDMKSARNSCWSKDAYGYSYGGKNDRVSVTNHDMDHASGAVG
modifications: TRAIL 114-281
In the case of B2, in the data set on Colo205 cells [1] (Colo205), the “apoptosis rate enhancement with neutralizing antibodies to both DcR1 and DcR2” value stood at 1.5±0.1 fold; the “reduction of apoptosis-inducing potential in the presence of the decoy receptors” value was “approximately 40%”. Moreover, in the data set on Colo205 cells [1] (Colo205, 3 h), the “fold increase in apoptosis with DcR1 neutralising antibody” value was found to be 1.5 fold and the “dose that induced approximately 50% cell death” value is around 20 ng/mL. Moreover, in the data set on Human dermal fibroblasts, the cell viability entry is on record as “Neither wtTRAIL nor the DR5-selective variants had any effect; also recorded: did not result in a decrease in cell viability”. Moreover, the sensitisation by aspirin entry in the data set on Colo205 cells [2] was “increased the sensitivity”. In the data set with Colo205 cells [3], the “change of sensitivity after PI3K inhibition” value is given as “slightly decreased”. Also, in the data set on SW948 cells, the “cell viability, single agent” value is “greater loss in cell viability compared to that of the DR5 mutant at higher concentrations”; the “effect of 5-FU on sensitivity” value is “enhanced sensitivity”; the “sensitivity, single agent comparison” value is “higher sensitivity”. Also, in the data set on SiHa cells, the “effect of combination with bortezomib” value is “increased tumor cell death” and the “sensitivity, single agent” value was “resistant”. Further, in the data set with HeLa cells, the “cell viability, single agent” value was “comparable”; the “effect of radiotherapy and Bortezomib on induced apoptosis” value is listed as “enhanced apoptosis”. Also, the cell death induction entry with ML-1 cells is on record as “able to induce cell death”. Also, in the data set with Colo205 cells [4], the “effect of pre-incubation with sDcR2 on apoptosis induction” value was “able to block apoptosis induction”, the “effect of pre-incubation with soluble DR5 on pro-apoptotic activity” value is listed as “completely block” and the “effect of pre-incubation with sDcR1 on pro-apoptotic activity” value is “completely blocked”.
